Source: the supplement of paper PMC10899765

These sequences were tested on MCF10A (assay: percent viability (nuclei count relative to siNT); higher = more viable cells). Details: 20 nM; 72 h.
Procedure: (§1)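 After 72 h, cells were fixed and stained with Hoechst and anti-fibrillarin, and nucleoli per nucleus were counted with CellProfiler. Values are plate-adjusted percent effect for the one-nucleolus and 5+ nucleoli phenotypes, normalised to siNT (0%) and to the positive controls siNOL11 or siKIF11 (100%), as the mean of biological triplicates. Percent viability is the nuclei count relative to siNT.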

| Sequence | percent viability [%] |
| --- | --- |
| UAUAUGGACUUUUCUGAUACAAUG [hsa-miR-8076] | 49.4 |
| ACUGGACUUGGUGUCAGAUGG [hsa-miR-378h] | 80 |
| UAUACAAGGGCAGACUCUCUCU [hsa-miR-300] | 68.9 |
| UGAGGUAGUAGGUUGUAUGGUU [hsa-let-7c] | 25.9 |
| CAAAAACUGCAGUUACUUUUGU [hsa-miR-548am-3p] | 96 |
| UCUUCUUCCUUUGCAGAGUUGA [hsa-miR-4778-3p] | 77.1 |
| CAAGGCCAAAGGAAGAGAACAG [hsa-miR-4753-5p] | 31.8 |
| AGGCGCACCCGACCACAUGC [hsa-miR-6722-5p] | 22.4 |
| UAAAGAACUCUUAAAACCCAAU [hsa-miR-3133] | 51.5 |
| AGGCUGGGCUGGGACGGA [hsa-miR-4505] | 12.3 |
| AGGAAAUGAGGCUGGCUAGGAGC [hsa-miR-5093] | 25.8 |
| UAUUCAUUUAUCCCCAGCCUACA [hsa-miR-664a-3p] | 121 |
| UUUAGUGUGAUAAUGGCGUUUGA [hsa-miR-3591-5p] | 39.6 |
| UUUCAAGCCAGGGGGCGUUUUUC [hsa-miR-498] | 61 |
| CGGGAGCUGGGGUCUGCAGGU [hsa-miR-6726-5p] | 73 |
| AUCAUGUAUGAUACUGCAAACA [hsa-miR-6516-3p] | 46.4 |
| GAAAGCGCUUCUCUUUAGAGG [hsa-miR-518f-3p] | 63.6 |
| UGGGUAGAGAAGGAGCUCAGAGGA [hsa-miR-3132] | 21.4 |
| AUGAGCGACUGUGCCUGACC [hsa-miR-5708] | 47.3 |
| AUCUGUCUCGAUUGUUUCCAG [hsa-miR-6888-3p] | 110 |

| Sequence | percent viability [%] |
| --- | --- |
| UUGGAGGGUGUGGAAGACAUC [hsa-miR-6515-5p] | 19 |
| UCACGCGGAGAGAUGGCUUUG [hsa-miR-3186-3p] | 20.7 |
| CCUGCAGAGAGGAAGCCCUUC [hsa-miR-3158-5p] | 38.5 |
| CCAAUUACCACUUCUUU [hsa-miR-4275] | 74.6 |
| UGCCCCAACAAGGAAGGACAAG [hsa-miR-5699-5p] | 43.1 |
| GUAGAGGAGAUGGCGCAGGG [hsa-miR-877-5p] | 54.7 |
| CACCUCUCCUGGCAUCGCCCC [hsa-miR-6800-3p] | 128 |
| AAAGAUGGACAAUUGGCUAAAU [hsa-miR-4662b] | 38.3 |
| AAAAGUGAUUGCAGUGUUUG [hsa-miR-548ah-5p] | 114 |
| UUGGGUUUUCUCUUCAAUCCAG [hsa-miR-6839-3p] | 22.3 |
| UAAAGUAAAUAUGCACCAAAA [hsa-miR-559] | 153 |
| UCUGGGUGCAGUGGGGGUU [hsa-miR-6776-5p] | 2.41 |
| GUGAAGGCCCGGCGGAGA [hsa-miR-6126] | 77.8 |
| UCUGCAAGUGUCAGAGGCGAGG [hsa-miR-2276] | 160 |
| AAAAGUAAUUGUGGUUUUGGCC [hsa-miR-548b-5p] | 131 |
| CCAGCCACGGACUGAGAGUGCAU [hsa-miR-4691-3p] | 51.4 |
| ACCCUUUUUCUCUUUCCCAG [hsa-miR-6832-3p] | 76.6 |
| UGGGGGCUGGAUGGGGUAGAGU [hsa-miR-6846-5p] | 23.9 |
| UGCCUACUGAGCUGAUAUCAGU [hsa-miR-24-1-5p] | 49.2 |
| UACAAGUCAGGAGCUGAAGCAG [hsa-miR-6882-5p] | 45.8 |

| Sequence | percent viability [%] |
| --- | --- |
| UGGGAGGGGAGAGGCAGCAAGCA [hsa-miR-4728-5p] | 7 |
| ACCCCUCGUUUCUUCCCCCAG [hsa-miR-6795-3p] | 101 |
| CACGCUCAUGCACACACCCACA [hsa-miR-574-3p] | 82.7 |
| UGGGGCGGAGCUUCCGGAGGCC [hsa-miR-3180-3p] | 12.9 |
| UAUUGCACUCGUCCCGGCCUCC [hsa-miR-92b-3p] | 76.9 |
| GCCUGGAGCUACUCCACCAUCUC [hsa-miR-4254] | 26.1 |
| UUGUUCUCAAACUGGCUGUCAGA [hsa-miR-7156-5p] | 46.2 |
| UAGAGAGGGGAAGGAUGUGAUGU [hsa-miR-6758-5p] | 44.4 |
| CUGCAAAGGGAAGCCCUUUC [hsa-miR-527] | 32.8 |
| GAAGUUGUUCGUGGUGGAUUCG [hsa-miR-382-5p] | 37.7 |
| GACAGAGUGCCACUUACUGAA [hsa-miR-4797-5p] | 23.7 |
| ACAUCCUGCUCCACAGGGCAGAGG [hsa-miR-4793-5p] | 52.3 |
| UCUGUGCUACUGGAUGAAGAGU [hsa-miR-7157-3p] | 92.3 |
| CUGCCCUAGUCUAGCUGAAGCU [hsa-miR-3157-3p] | 170 |
| GCUGGUUUCAUAUGGUGGUUUAGA [hsa-miR-29b-1-5p] | 100 |
| AGGGGGGCACUGCGCAAGCAAAGCC [hsa-miR-6885-5p] | 42.5 |
| GAACGCCUGUUCUUGCCAGGUGG [hsa-miR-614] | 72.8 |
| ACUGGCAGAACACUGAAGCAGC [hsa-miR-6868-5p] | 26.9 |
| ACCCUCGUCAGGUCCCCGGGG [hsa-miR-4655-3p] | 56.9 |

Each sequence was assayed on MCF10A (assay: one-nucleolus phenotype percent effect (relative to siNT 0% and siNOL11 100%); higher = more cells with one nucleolus (ribosome biogenesis inhibition)). Details: 20 nM; 72 h.
Procedure: as §1

| Sequence | one-nucleolus phenotype percent effect [%] |
| --- | --- |
| UAUAUGGACUUUUCUGAUACAAUG [hsa-miR-8076] | -22.4 |
| ACUGGACUUGGUGUCAGAUGG [hsa-miR-378h] | -14.6 |
| UAUACAAGGGCAGACUCUCUCU [hsa-miR-300] | -10.6 |
| UGAGGUAGUAGGUUGUAUGGUU [hsa-let-7c] | -17.3 |
| CAAAAACUGCAGUUACUUUUGU [hsa-miR-548am-3p] | -23.3 |
| UCUUCUUCCUUUGCAGAGUUGA [hsa-miR-4778-3p] | -1.98 |
| CAAGGCCAAAGGAAGAGAACAG [hsa-miR-4753-5p] | 2.71 |
| AGGCGCACCCGACCACAUGC [hsa-miR-6722-5p] | 26.5 |
| UAAAGAACUCUUAAAACCCAAU [hsa-miR-3133] | -22.2 |
| AGGCUGGGCUGGGACGGA [hsa-miR-4505] | 32.2 |
| AGGAAAUGAGGCUGGCUAGGAGC [hsa-miR-5093] | 23.8 |
| UAUUCAUUUAUCCCCAGCCUACA [hsa-miR-664a-3p] | -21 |
| UUUAGUGUGAUAAUGGCGUUUGA [hsa-miR-3591-5p] | 11.5 |
| UUUCAAGCCAGGGGGCGUUUUUC [hsa-miR-498] | -7.63 |
| CGGGAGCUGGGGUCUGCAGGU [hsa-miR-6726-5p] | -17.2 |
| AUCAUGUAUGAUACUGCAAACA [hsa-miR-6516-3p] | 25.6 |
| GAAAGCGCUUCUCUUUAGAGG [hsa-miR-518f-3p] | 17.1 |
| UGGGUAGAGAAGGAGCUCAGAGGA [hsa-miR-3132] | 1.88 |
| AUGAGCGACUGUGCCUGACC [hsa-miR-5708] | 21.4 |
| AUCUGUCUCGAUUGUUUCCAG [hsa-miR-6888-3p] | 23.5 |
| UUGGAGGGUGUGGAAGACAUC [hsa-miR-6515-5p] | 40.1 |
| UCACGCGGAGAGAUGGCUUUG [hsa-miR-3186-3p] | 11.3 |
| CCUGCAGAGAGGAAGCCCUUC [hsa-miR-3158-5p] | 26.4 |
| CCAAUUACCACUUCUUU [hsa-miR-4275] | -17.6 |
| UGCCCCAACAAGGAAGGACAAG [hsa-miR-5699-5p] | -18.9 |
| GUAGAGGAGAUGGCGCAGGG [hsa-miR-877-5p] | -6.88 |
| CACCUCUCCUGGCAUCGCCCC [hsa-miR-6800-3p] | -20.1 |
| AAAGAUGGACAAUUGGCUAAAU [hsa-miR-4662b] | 49.4 |
| AAAAGUGAUUGCAGUGUUUG [hsa-miR-548ah-5p] | -15.3 |
